Data: article PMC6007875 (Nature, 2018)
Substitutions are numbered along the chain they refer to. Names and notes keep the numbering of the source.

T1: shed extracellular domain of αKlotho (αKlotho^ecto) (human, UniProt Q9UEF7 34-981)
T1 sequence (looked up): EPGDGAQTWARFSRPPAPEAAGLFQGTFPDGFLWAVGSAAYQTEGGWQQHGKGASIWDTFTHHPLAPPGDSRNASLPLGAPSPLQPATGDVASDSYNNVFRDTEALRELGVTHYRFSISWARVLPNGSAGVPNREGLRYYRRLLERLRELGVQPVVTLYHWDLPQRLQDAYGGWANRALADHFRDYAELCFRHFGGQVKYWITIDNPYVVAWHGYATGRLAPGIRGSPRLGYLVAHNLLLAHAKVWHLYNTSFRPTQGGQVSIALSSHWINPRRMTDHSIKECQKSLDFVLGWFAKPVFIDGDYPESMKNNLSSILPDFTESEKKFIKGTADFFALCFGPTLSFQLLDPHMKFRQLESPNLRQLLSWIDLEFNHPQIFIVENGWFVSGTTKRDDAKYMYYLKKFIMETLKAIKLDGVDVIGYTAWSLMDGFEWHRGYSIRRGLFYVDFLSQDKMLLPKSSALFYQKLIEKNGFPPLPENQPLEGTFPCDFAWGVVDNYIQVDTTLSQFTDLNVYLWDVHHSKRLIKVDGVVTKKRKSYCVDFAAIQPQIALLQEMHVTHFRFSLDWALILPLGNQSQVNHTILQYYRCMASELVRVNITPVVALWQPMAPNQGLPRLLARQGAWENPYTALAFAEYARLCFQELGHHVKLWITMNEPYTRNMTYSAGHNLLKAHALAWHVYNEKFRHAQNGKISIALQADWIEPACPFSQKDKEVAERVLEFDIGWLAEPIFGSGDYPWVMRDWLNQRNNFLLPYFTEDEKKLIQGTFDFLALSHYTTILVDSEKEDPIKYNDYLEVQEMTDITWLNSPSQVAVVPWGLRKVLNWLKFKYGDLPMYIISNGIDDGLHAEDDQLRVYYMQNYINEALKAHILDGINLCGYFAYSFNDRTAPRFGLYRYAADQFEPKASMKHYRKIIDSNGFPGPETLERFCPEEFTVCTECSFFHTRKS

B1: fibroblast growth factor 23 (FGF23) (ligand, human, UniProt Q9GZV9 25-251, looked up)
chain: YPNASPLLGSSWGGLIHLYTATARNSYHLQIHKNGHVDGAPHQTIYSALMIRSEDAGFVVITGVMSRRYLCMDFRGNIFGSHYFDPENCRFQHQTLENGYDVYHSPQYHFLVSLGRAKRAFLPGMNPPPYSQFLSRRNEIPLIHFNTPIPRRHTRSAEDDSERDPLNVLKPRARMTPAPASCSQELPSAEDNSPMASDPLGVVRGGRVNTHAGGTGPEGCRPFAKFI
B2: FGF23^ΔHBS (R140A/R143A) (ligand, human, UniProt Q9GZV9 25-251, looked up)
chain: B1 chain with R116A, R119A
B3: FGF23^ΔSRBS (M149A/N150A/P151A) (ligand, human, UniProt Q9GZV9 25-251, looked up)
chain: B1 chain with M125A, N126A, P127A
B4: FGFR1c^ΔHBS (K160Q/K163Q), ecto (domain or fragment, human)
chain: DNTKPNRMPVAPYWTSPEQMEQKLHAVPAAKTVKFKCPSSGTPNPTLRWLKNGKEFKPDHRIGGYKVRYATWSIIMDSVVPSDKGNYTCIVENEYGSINHTYQLDVVERSPHRPILQAGLPANKTVALGSNVEFMCKVYSDPQPHIQWLKHIEVNGSKIGPDNLPYVQILKTAGVNTTDKEMEVLHLRNVSFEDAGEYTCLAGNSIGLSHHSAWLTVLEALEER
B5: FGFR1c ligand-binding domain (FGFR1c^ecto) (domain or fragment, human)
chain: B4 chain with Q19K, Q22K
B6: FGFR1c^ΔHBS’ (K207Q/R209Q), ecto (domain or fragment, human)
chain: B4 chain with Q19K, Q22K, K66Q, R68Q
B7: FGFR1c^ΔSLBS’ (V221D), ecto (domain or fragment, human)
chain: B4 chain with Q19K, Q22K, V80D
B8: FGFR1c^ΔRRBS (A171D), ecto (domain or fragment, human)
chain: B4 chain with Q19K, Q22K, A30D
B9: FGFR1c^ΔSLBS (I203E), ecto (domain or fragment, human)
chain: B4 chain with Q19K, Q22K, I62E

Columns and labels:
FGFR1c (Homo sapiens) = FGFR1c (Homo sapiens) (UniProt P11362); details: cited from earlier work
Chain of FGFR1c (Homo sapiens) (P11362 22-376): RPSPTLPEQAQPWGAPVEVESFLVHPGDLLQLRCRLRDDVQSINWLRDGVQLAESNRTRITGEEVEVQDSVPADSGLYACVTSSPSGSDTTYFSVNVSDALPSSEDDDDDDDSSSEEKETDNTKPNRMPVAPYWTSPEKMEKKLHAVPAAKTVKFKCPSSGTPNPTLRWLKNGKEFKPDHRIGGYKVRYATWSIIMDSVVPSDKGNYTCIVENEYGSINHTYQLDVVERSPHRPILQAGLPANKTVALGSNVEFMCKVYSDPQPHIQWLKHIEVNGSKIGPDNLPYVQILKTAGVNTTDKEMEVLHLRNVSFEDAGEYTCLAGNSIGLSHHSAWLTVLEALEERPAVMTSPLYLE

[1] = molecular target: B5; test: SEC-MALS
[2] = molecular target: T1, shed extracellular domain of αKlotho …; test: SEC-MALS
FGF23^ΔHBS (R140A/R143A) = molecular target: B2; test: SEC-MALS
[3] = molecular target: B3; test: SEC-MALS

| Molecule | binding result [2] | also measured |
| --- | --- | --- |
| αKlotho (from UniProt Q9UEF7) |  | Kd (FGFR1c (Homo sapiens)): 72 nM |
| B1 |  | stoichiometry N [1]: 1; stoichiometry N [2]: 1 |
| B2 | binds |  |
| B3 | binds |  |
| B4 | binds |  |
| B5 |  | stoichiometry N [2]: 1; binding result (FGF23^ΔHBS (R140A/R143A)): binds; binding result [3]: binds |
| B6 | binds |  |
| B7 | binds |  |
| B8 | binds |  |
| B9 | binds |  |
